In a protein production outcome set (Wang et al. 2014) one finds protein production data, which are given here for five sequences.

The series is described as follows: label from the status in PepcDB records.
“MLRLYKTIGRFNLINFQEDYPMKILVVGTGAREHAICSALADEATIYSVMGNRNPGISRLAGNSLLLLKLTPKVVRFASEKGVDMAFIGPEAHLEAGLVDALEEAGIPSVGPTRDAARIETDKSFMRKLFEDYRIPGSITYRVFSDPEELREFMEDFDSEAVVKPVGLTGGKGVKIVGEHLRDNMEALKYATEVIEKRIGGHPSVVIEERVVGEEFTVQAFSDGEHIVPMPAVQDHPHAYEGDQGPITGGMGSYSDSDGLLPFLTQKDYEDAVEIMQRTVDAIRKETGPYRGILYGQFMLSADGPKLIEYNARFGDPEAMNVLPLLESSMLEICEGIVDGNLKSASFMNLATVCKYLVPEGYPESGVAGAEIKVDEKKIEDMGVITYYAAVNQEDDHIYTSSSRALALVAPADDIYSAEELCEEATAHVKGRLYHRRDIGTRELVEKRIKHMEDLRS”: the protein production entry is on record as “failed”.

On to “MLRNIIRFKGFGKGTSGGFLKPVSFRVQLTRCYRYDNGPSYRRFNNGEYSQKSSFKSILLDKSSRKYLALLFGGCSLFYYTHLDKAPVSDRSRFIWVSRPLELTIGNYTYKSIWRQTQQEILPPQHPLSIKIENIFMKIVEAAYKDPSVDNSLLDGIKWEIHVVNDPTASPNAFVLPGGKVFIFSSILPICANDDGIATVLAHEFAHQLARHTAENLSKAPIYSLLGLVLYTVTGAHAINNILLDGFLRMPASRQMETEADYIGLMIMSRACFQPQESIKVWERMANFEKQMNRGGVVNMEFLSTHPASTRRIENMSKWLPKANEIYEQSDCSSMGNYYKSFFSM”, for which the protein production entry is “failed”.

For “MLRPRTIKEGSVGLFALLGLFIIGGIVLWLRGGAFGNPGYEVLVQFDDASGLQVGGAVRYRGVPVGRVAKLIPGSNGILAQLEISSTQLRIPADVQVEISRYGLLGEAAIDMIPDRQLSEAALAIDPLSADCAESDKILCDGDELEGQAGTQLTNSMARLAQAYSEPEFVADINATVKSANLAAARIAAMSAEITALSKTANQQVRGFERTSEAIAKAADNASLLTSRVDQVVQTNQGYINRTIEEASLLMVNLNQLVGENRAQFNLTLKSIETTNRDLQAIGQEIQTAVGTINHGLAAIDTQKVTNDLALLMENAAVTSNNIRQISNDLNDPTLMLTLQQTLDAARLTFENAQKITSDVEQLTGDPAFRNNLRKLVDGLGQLVSSTENLQDRVYTAHTLERSGQQLRFQLDHQQQLALYYEQWGVINPVPASGSPSPQIQTPKIKPPQPKENQGK”, the protein production entry is on record as “failed”. As for “MLRPSVSLAFASSLPQQSVASRAVQRSPLPRRASGHGATEARGMPSHCFIRFCCIVLLAITGCSPAAQSRYAPERNFSDPKALALALAAEQGDAEEVRRLMKVEGVNPDTIFSKDGYPLLFWPIFTHSPAGLKAMLDNGADPNVALPYQTLDRGVRNNPNAMVWAAEQDDPIYLKMLLDHGGNPNTRNANNESLLFHAFIKQNKWDNIKLLVERGADINAVAGMGNSITAAYAIRGGFDFVYWLLQHGADPTIEFAYGNPVHLKDSGIIEAIFWHPGNPKDPQWQRQCQQWLLKRGYERPPLPENYRSMRKAFHFPSEEKEIPLL”, the entry is “failed”. Consider “MLRRALEEAIAQALKEMGVPVRLKVARAPKDKPGDYGVPLFALAKELRKPPQAIAQELKDRLPLPEFVEEAVPVGGYLNFRLRTEALLREALRPKAPFPRRPGVVLVEHTSVNPNKELHVGHLRNIALGDAIARILAYAGREVLVLNYIDDTGRQAAETLFALRHYGLTWDGKEKYDHFAGRAYVRLHQDPEYERLQPAIEEVLHALERGELREEVNRILLAQMATMHALNARYDLLVWESDIVRAGLLQKALALLEQSPHVFRPREGKYAGALVMDASPVIPGLEDPFFVLLRSNGTATYYAKDIAFQFWKMGILEGLRFRPYENPYYPGLRTSAPEGEAYTPKAEETINVVDVRQSHPQALVRAALALAGYPALAEKAHHLAYETVLLEGRQMSGRKGLAVSVDEVLEEATRRARAIVEEKNPDHPDKEEAARMVALGAIRFSMVKTEPKKQIDFRYQEALSFEGDTGPYVQYAHARAHSILRKAGEWGAPDLSQATPYERALALDLLDFEEAVLEAAEERTPHVLAQYLLDLAASWNAYYNARENGQPATPVLTAPEGLRELRLSLVQSLQRTLATGLDLLGIPAPEVM”, for which the protein production entry is given as “not failed”.
